# Laboratory results reported in patent US20180273587A1 (AILERON THERAPEUTICS, published 2018).
# Positions of bridges follow the written chain, without caps; N, C: chain ends. Non-standard residues stand in square brackets, D forms with d. Phe(4-CF3) = N[C@@H](Cc1ccc(C(F)(F)F)cc1)C(=O)O; Bip = N[C@@H](Cc1ccc(-c2ccccc2)cc1)C(=O)O; R8 = C=CCCCCCC[C@@](C)(N)C(=O)O; hAdm = homo-adamantyl glycine; S5 = C=CCCC[C@](C)(N)C(=O)O
# B1: SEQ ID NO: 1628 (peptide)
# peptide: IWIAQALRAIGDEFNAYYARR
# modifications: not fully specified; Ac- at N-terminus; -NH2 at C-terminus; $r8 at 9 and $ at 16 joined by all-carbon crosslinker
# B2: SEQ ID NO: 1633 (peptide)
# peptide: IWIAQALRAIGDAFNAYYA
# modifications: not fully specified; Ac- at N-terminus; -NH2 at C-terminus; $r8 at 9 and $ at 16 joined by all-carbon crosslinker
# B3: SEQ ID NO: 1694 (peptide)
# peptide: Ac-IWIAQA[Phe(4-CF3)]R[R8]IGDAFN[S5]YYA-NH2
# modifications: staple 9-16
# SMILES: CC[C@H](C)[C@H](NC(C)=O)C(=O)N[C@@H](Cc1c[nH]c2ccccc12)C(=O)N[C@H](C(=O)N[C@@H](C)C(=O)N[C@@H](CCC(N)=O)C(=O)N[C@@H](C)C(=O)N[C@@H](Cc1ccc(C(F)(F)F)cc1)C(=O)N[C@@H](CCCNC(=N)N)C(=O)N[C@]1(C)CCCCCCC=CCCC[C@@](C)(C(=O)N[C@@H](Cc2ccc(O)cc2)C(=O)N[C@@H](Cc2ccc(O)cc2)C(=O)N[C@@H](C)C(N)=O)NC(=O)[C@H](CC(N)=O)NC(=O)[C@H](Cc2ccccc2)NC(=O)[C@H](C)NC(=O)[C@H](CC(=O)O)NC(=O)CNC(=O)[C@H]([C@@H](C)CC)NC1=O)[C@@H](C)CC
# notes: also called Ac-IWIAQAF4CF3R$r8IGDAFN$YYA-NH2
# B4: SEQ ID NO: 1651 (peptide)
# peptide: Ac-IWIAAALR[R8]IGDEFN[S5]YYA-NH2
# modifications: staple 9-16
# SMILES: CC[C@H](C)[C@H](NC(C)=O)C(=O)N[C@@H](Cc1c[nH]c2ccccc12)C(=O)N[C@H](C(=O)N[C@@H](C)C(=O)N[C@@H](C)C(=O)N[C@@H](C)C(=O)N[C@@H](CC(C)C)C(=O)N[C@@H](CCCNC(=N)N)C(=O)N[C@]1(C)CCCCCCC=CCCC[C@@](C)(C(=O)N[C@@H](Cc2ccc(O)cc2)C(=O)N[C@@H](Cc2ccc(O)cc2)C(=O)N[C@@H](C)C(N)=O)NC(=O)[C@H](CC(N)=O)NC(=O)[C@H](Cc2ccccc2)NC(=O)[C@H](CCC(=O)O)NC(=O)[C@H](CC(=O)O)NC(=O)CNC(=O)[C@H]([C@@H](C)CC)NC1=O)[C@@H](C)CC
# B5: SEQ ID NO: 1650 (peptide)
# peptide: Ac-IWIAQALR[R8]IGDQFN[S5]YYA-NH2
# modifications: staple 9-16
# SMILES: CC[C@H](C)[C@H](NC(C)=O)C(=O)N[C@@H](Cc1c[nH]c2ccccc12)C(=O)N[C@H](C(=O)N[C@@H](C)C(=O)N[C@@H](CCC(N)=O)C(=O)N[C@@H](C)C(=O)N[C@@H](CC(C)C)C(=O)N[C@@H](CCCNC(=N)N)C(=O)N[C@]1(C)CCCCCCC=CCCC[C@@](C)(C(=O)N[C@@H](Cc2ccc(O)cc2)C(=O)N[C@@H](Cc2ccc(O)cc2)C(=O)N[C@@H](C)C(N)=O)NC(=O)[C@H](CC(N)=O)NC(=O)[C@H](Cc2ccccc2)NC(=O)[C@H](CCC(N)=O)NC(=O)[C@H](CC(=O)O)NC(=O)CNC(=O)[C@H]([C@@H](C)CC)NC1=O)[C@@H](C)CC
# B6: SEQ ID NO: 1649 (peptide)
# peptide: Ac-IWIAQALR[R8]IGDEFN[S5]YYA-NH2
# modifications: staple 9-16
# SMILES: CC[C@H](C)[C@H](NC(C)=O)C(=O)N[C@@H](Cc1c[nH]c2ccccc12)C(=O)N[C@H](C(=O)N[C@@H](C)C(=O)N[C@@H](CCC(N)=O)C(=O)N[C@@H](C)C(=O)N[C@@H](CC(C)C)C(=O)N[C@@H](CCCNC(=N)N)C(=O)N[C@]1(C)CCCCCCC=CCCC[C@@](C)(C(=O)N[C@@H](Cc2ccc(O)cc2)C(=O)N[C@@H](Cc2ccc(O)cc2)C(=O)N[C@@H](C)C(N)=O)NC(=O)[C@H](CC(N)=O)NC(=O)[C@H](Cc2ccccc2)NC(=O)[C@H](CCC(=O)O)NC(=O)[C@H](CC(=O)O)NC(=O)CNC(=O)[C@H]([C@@H](C)CC)NC1=O)[C@@H](C)CC
# B7: SEQ ID NO: 1648 (peptide)
# peptide: Ac-IAIAQALR[R8]IGDAFN[S5]YYA-NH2
# modifications: staple 9-16
# SMILES: CC[C@H](C)[C@H](NC(C)=O)C(=O)N[C@@H](C)C(=O)N[C@H](C(=O)N[C@@H](C)C(=O)N[C@@H](CCC(N)=O)C(=O)N[C@@H](C)C(=O)N[C@@H](CC(C)C)C(=O)N[C@@H](CCCNC(=N)N)C(=O)N[C@]1(C)CCCCCCC=CCCC[C@@](C)(C(=O)N[C@@H](Cc2ccc(O)cc2)C(=O)N[C@@H](Cc2ccc(O)cc2)C(=O)N[C@@H](C)C(N)=O)NC(=O)[C@H](CC(N)=O)NC(=O)[C@H](Cc2ccccc2)NC(=O)[C@H](C)NC(=O)[C@H](CC(=O)O)NC(=O)CNC(=O)[C@H]([C@@H](C)CC)NC1=O)[C@@H](C)CC
# B8: SEQ ID NO: 1643 (peptide)
# peptide: Ac-IWIAQALR[R8]IGDEFA[S5]YYA-NH2
# modifications: staple 9-16
# SMILES: CC[C@H](C)[C@H](NC(C)=O)C(=O)N[C@@H](Cc1c[nH]c2ccccc12)C(=O)N[C@H](C(=O)N[C@@H](C)C(=O)N[C@@H](CCC(N)=O)C(=O)N[C@@H](C)C(=O)N[C@@H](CC(C)C)C(=O)N[C@@H](CCCNC(=N)N)C(=O)N[C@]1(C)CCCCCCC=CCCC[C@@](C)(C(=O)N[C@@H](Cc2ccc(O)cc2)C(=O)N[C@@H](Cc2ccc(O)cc2)C(=O)N[C@@H](C)C(N)=O)NC(=O)[C@H](C)NC(=O)[C@H](Cc2ccccc2)NC(=O)[C@H](CCC(=O)O)NC(=O)[C@H](CC(=O)O)NC(=O)CNC(=O)[C@H]([C@@H](C)CC)NC1=O)[C@@H](C)CC
# B9: SEQ ID NO: 1641 (peptide)
# peptide: Ac-I[S5]IAQ[S5]LR[R8]IGDEFN[S5]YYA-NH2
# modifications: staple 9-16, 2-6
# SMILES: CC[C@H](C)[C@H](NC(C)=O)C(=O)N[C@@]1(C)CCCC=CCCC[C@@](C)(C(=O)N[C@@H](CC(C)C)C(=O)N[C@@H](CCCNC(=N)N)C(=O)N[C@]2(C)CCCCCCC=CCCC[C@@](C)(C(=O)N[C@@H](Cc3ccc(O)cc3)C(=O)N[C@@H](Cc3ccc(O)cc3)C(=O)N[C@@H](C)C(N)=O)NC(=O)[C@H](CC(N)=O)NC(=O)[C@H](Cc3ccccc3)NC(=O)[C@H](CCC(=O)O)NC(=O)[C@H](CC(=O)O)NC(=O)CNC(=O)[C@H]([C@@H](C)CC)NC2=O)NC(=O)[C@H](CCC(N)=O)NC(=O)[C@H](C)NC(=O)[C@H]([C@@H](C)CC)NC1=O
# notes: also called Ac-I$IAQ$LR$r8IGDEFN$YYA-NH2
# B10: SEQ ID NO: 1686 (peptide)
# peptide: Ac-IW[Bip]AQALR[R8]IGDAFN[S5]YYA-NH2
# modifications: staple 9-16
# SMILES: CC[C@H](C)[C@H](NC(C)=O)C(=O)N[C@@H](Cc1c[nH]c2ccccc12)C(=O)N[C@@H](Cc1ccc(-c2ccccc2)cc1)C(=O)N[C@@H](C)C(=O)N[C@@H](CCC(N)=O)C(=O)N[C@@H](C)C(=O)N[C@@H](CC(C)C)C(=O)N[C@@H](CCCNC(=N)N)C(=O)N[C@]1(C)CCCCCCC=CCCC[C@@](C)(C(=O)N[C@@H](Cc2ccc(O)cc2)C(=O)N[C@@H](Cc2ccc(O)cc2)C(=O)N[C@@H](C)C(N)=O)NC(=O)[C@H](CC(N)=O)NC(=O)[C@H](Cc2ccccc2)NC(=O)[C@H](C)NC(=O)[C@H](CC(=O)O)NC(=O)CNC(=O)[C@H]([C@@H](C)CC)NC1=O
# notes: also called Ac-IWBipAQALR$r8IGDAFN$YYA-NH2
# B11: SEQ ID NO: 1691 (peptide)
# peptide: Ac-IWIAQA[hAdm]R[R8]IGDAFN[S5]YYA-NH2
# modifications: staple 9-16
# notes: also called Ac-IWIAQAhAdmR$r8IGDAFN$YYA-NH2
# Molecular target: BCL-XL (UniProt Q07817 1-209)
# Assay: Ki table, method not stated
# BCL-XL, sequence (Q07817 1-209): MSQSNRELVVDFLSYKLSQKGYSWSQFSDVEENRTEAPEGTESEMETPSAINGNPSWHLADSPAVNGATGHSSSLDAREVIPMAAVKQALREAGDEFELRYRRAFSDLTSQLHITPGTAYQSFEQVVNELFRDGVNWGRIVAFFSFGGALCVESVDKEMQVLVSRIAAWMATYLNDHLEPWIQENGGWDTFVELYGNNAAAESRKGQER
row,Binder,Ki [nM]
1,B1,3.9
2,B2,22.4
3,B3,10.8
4,B4,1
5,B5,12
6,B6,1.4
7,B7,22.3
8,B8,15.4
9,B9,11.6
10,B10,3

# Molecular target: T1, MCL-1 (UniProt Q07820 172-327, limits assumed)
# T1 construct: also called Myeloid cell leukemia 1
# Assay: Ki table, method not stated
# T1 sequence (Q07820 172-327 limits assumed): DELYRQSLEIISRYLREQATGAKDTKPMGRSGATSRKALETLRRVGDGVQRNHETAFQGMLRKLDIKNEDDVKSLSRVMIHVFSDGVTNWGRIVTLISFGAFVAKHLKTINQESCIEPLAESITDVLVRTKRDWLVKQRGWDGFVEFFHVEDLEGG
row,Binder,Ki [nM]
1,B1,10.6
2,B2,8.4
3,B3,188
4,B4,1
5,B5,5.2
6,B6,1.8
7,B7,19.7
8,B8,7
9,B9,19.5
10,B11,16.6
11,B10,11

# Molecular target: BCL-2 (UniProt P10415 1-217, limits assumed)
# Assay: Ki table, method not stated
# BCL-2, sequence (P10415 1-217 limits assumed): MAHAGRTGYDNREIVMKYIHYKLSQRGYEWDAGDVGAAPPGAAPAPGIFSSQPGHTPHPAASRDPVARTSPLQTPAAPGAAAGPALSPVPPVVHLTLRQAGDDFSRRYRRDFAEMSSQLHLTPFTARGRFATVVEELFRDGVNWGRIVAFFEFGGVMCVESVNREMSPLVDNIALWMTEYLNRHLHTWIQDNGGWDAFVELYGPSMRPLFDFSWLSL
row,Binder,Ki [nM]
1,B1,12.9
2,B2,84.8
3,B4,6
4,B5,67
5,B6,3.2
6,B7,37.7
7,B8,21.9
8,B9,8.7
9,B11,240
